Target: His6-SUMO tagged H3.3 (human, UniProt P84243 1-136)
Assay: native gel or EMSA

binding result: binds
B1: human histone H3.Y (natural protein)
chain: not shown

Reference: PMC5291245 (Nucleic Acids Research, 2016)
